{
  "source": "paper PMC5653649",
  "about": "“Evolution of AF6-RAS association and its implications in mixed-lineage leukemia” (Nature Communications, 2017)",
  "binders": {"B1": {"name": "AF6 αN-extended RA1 domain (residues 6–136) (domain or fragment, UniProt Q9QZQ1 6-136, looked up)", "chain": "RDEERRKLADIIHHWNANRLDLFEISQPTEDLEFHGVMRFYFQDKAAGNFATKCIRVSSTATTQDVIETLAEKFRPDMRMLSSPKYSLYEVHVSGERRLDIDEKPLVVQLNWNKDDREGRFVLKNENDAIP", "notes": "AF6/afadin αN helix and RA1 domain, residues 6-136; also called αN-RA1; αN/RA1; source: E. coli BL21, purified (glutathione resin, thrombin cleavage, size exclusion chromatography); not shown: GST, N-terminal, cleaved"}, "B2": {"name": "BTBD18 (residues 97–134) fused upstream of the ARAF RBD domain (residues 17–94) (other, UniProt B2RXH4 97-134, looked up)", "chain": "EMEVSQEEAQDVLSAARQLRVSELESLQLEGGKLVKAPAVGTVKVYLPNKQRTVVTVRDGMSVYDSLDKALKVRGLNQDCCVVYRLIKGRKTVTAWDTAIAPLDGEELIVEVLEDV", "notes": "human BTBD18, Gene ID 643376, residues 97-134 (helix-turn-helix with a hydrophobic patch); source: E. coli BL21, purified (expressed from pGEX-4T2); not shown: GST, N-terminal, cleaved"}, "B3": {"name": "AF6 αN helix fragment (residues 6–36) (domain or fragment, UniProt Q9QZQ1 6-36, looked up)", "chain": "RDEERRKLADIIHHWNANRLDLFEISQPTED", "notes": "AF6/afadin residues 6-36 encompassing the αN helix (31 residues); also called AF6 6–36; αN helix alone; source: E. coli BL21, purified (glutathione resin, thrombin cleavage, size exclusion chromatography); not shown: GST, N-terminal, cleaved"}, "B4": {"name": "AF6 RA1 domain (residues 37–136) (domain or fragment, UniProt Q9QZQ1 37-136, looked up)", "chain": "LEFHGVMRFYFQDKAAGNFATKCIRVSSTATTQDVIETLAEKFRPDMRMLSSPKYSLYEVHVSGERRLDIDEKPLVVQLNWNKDDREGRFVLKNENDAIP", "notes": "AF6/afadin first RAS association (RA1) domain, residues 37-136; 15N-labelled for the NMR titration; The monomer fraction was used for crystallisation; also called core RA1 domain; core AF6 RA domain; source: E. coli BL21, purified (glutathione resin, thrombin cleavage, size exclusion chromatography); not shown: GST, N-terminal, cleaved"}},
  "key": {"[1]": {"molecular_target": "T1, H-RAS (residues 1–171), GMPPNP-loaded (human, UniProt P01112 1-171)", "T1 construct": "wild-type H-RAS, human cDNA, Gene ID 3265, residues 1-171; also called RAS-GMPPNP; source: E. coli BL21, purified (Ni-NTA, thrombin, size exclusion chromatography), loaded with GMPPNP; not shown: HIS tag, N-terminal, cleaved", "assay": "ITC; Microcal VP-ITC; RA domains titrated into GMPPNP-loaded RAS; 20 mM Tris-HCl pH 7.5, 100 mM NaCl, 5 mM MgCl2, 1 mM DTT; 25 °C", "conditions": "both partners purified"}, "[2]": {"molecular_target": "the molecule itself", "assay": "native gel or EMSA; blue native PAGE (BN–PAGE), 15% acrylamide; proteins purified by size exclusion chromatography and concentrated to 100–150 μM"}, "[3]": {"molecular_target": "B4", "assay": "NMR titration; AF6 6–36 fragment titrated into 15N-AF6 RA1; 1H/15N-HSQC; 25 °C; 20 mM Tris-HCl pH 7.5, 100 mM NaCl, 1 mM DTT, 5 mM MgCl2, 10% D2O", "conditions": "both partners purified"}, "[4]": {"molecular_target": "the molecule itself", "assay": "SEC; size exclusion chromatography of the purified domain at several concentrations (S75 or S200 column)"}},
  "data": [
    {"binder": "B1", "values": [
      {"measurement": "Kd", "setting": "[1]", "value": 4.1, "unit": "µM"}
    ]},
    {"binder": "B2", "values": [
      {"measurement": "stoichiometry N", "setting": "[2]", "value": 2}
    ]},
    {"binder": "B3", "values": [
      {"measurement": "binding result", "setting": "[3]", "value": "binds"}
    ]},
    {"binder": "B4", "values": [
      {"measurement": "stoichiometry N", "setting": "[4]", "value": 2},
      {"measurement": "Kd", "setting": "[1]", "value": 17.8, "unit": "µM"}
    ]}
  ]
}
